The data set addresses T1, DiCas7-11 D429A/D654A (Desulfonema ishimotonii, D429A,D654A).
T1 chain: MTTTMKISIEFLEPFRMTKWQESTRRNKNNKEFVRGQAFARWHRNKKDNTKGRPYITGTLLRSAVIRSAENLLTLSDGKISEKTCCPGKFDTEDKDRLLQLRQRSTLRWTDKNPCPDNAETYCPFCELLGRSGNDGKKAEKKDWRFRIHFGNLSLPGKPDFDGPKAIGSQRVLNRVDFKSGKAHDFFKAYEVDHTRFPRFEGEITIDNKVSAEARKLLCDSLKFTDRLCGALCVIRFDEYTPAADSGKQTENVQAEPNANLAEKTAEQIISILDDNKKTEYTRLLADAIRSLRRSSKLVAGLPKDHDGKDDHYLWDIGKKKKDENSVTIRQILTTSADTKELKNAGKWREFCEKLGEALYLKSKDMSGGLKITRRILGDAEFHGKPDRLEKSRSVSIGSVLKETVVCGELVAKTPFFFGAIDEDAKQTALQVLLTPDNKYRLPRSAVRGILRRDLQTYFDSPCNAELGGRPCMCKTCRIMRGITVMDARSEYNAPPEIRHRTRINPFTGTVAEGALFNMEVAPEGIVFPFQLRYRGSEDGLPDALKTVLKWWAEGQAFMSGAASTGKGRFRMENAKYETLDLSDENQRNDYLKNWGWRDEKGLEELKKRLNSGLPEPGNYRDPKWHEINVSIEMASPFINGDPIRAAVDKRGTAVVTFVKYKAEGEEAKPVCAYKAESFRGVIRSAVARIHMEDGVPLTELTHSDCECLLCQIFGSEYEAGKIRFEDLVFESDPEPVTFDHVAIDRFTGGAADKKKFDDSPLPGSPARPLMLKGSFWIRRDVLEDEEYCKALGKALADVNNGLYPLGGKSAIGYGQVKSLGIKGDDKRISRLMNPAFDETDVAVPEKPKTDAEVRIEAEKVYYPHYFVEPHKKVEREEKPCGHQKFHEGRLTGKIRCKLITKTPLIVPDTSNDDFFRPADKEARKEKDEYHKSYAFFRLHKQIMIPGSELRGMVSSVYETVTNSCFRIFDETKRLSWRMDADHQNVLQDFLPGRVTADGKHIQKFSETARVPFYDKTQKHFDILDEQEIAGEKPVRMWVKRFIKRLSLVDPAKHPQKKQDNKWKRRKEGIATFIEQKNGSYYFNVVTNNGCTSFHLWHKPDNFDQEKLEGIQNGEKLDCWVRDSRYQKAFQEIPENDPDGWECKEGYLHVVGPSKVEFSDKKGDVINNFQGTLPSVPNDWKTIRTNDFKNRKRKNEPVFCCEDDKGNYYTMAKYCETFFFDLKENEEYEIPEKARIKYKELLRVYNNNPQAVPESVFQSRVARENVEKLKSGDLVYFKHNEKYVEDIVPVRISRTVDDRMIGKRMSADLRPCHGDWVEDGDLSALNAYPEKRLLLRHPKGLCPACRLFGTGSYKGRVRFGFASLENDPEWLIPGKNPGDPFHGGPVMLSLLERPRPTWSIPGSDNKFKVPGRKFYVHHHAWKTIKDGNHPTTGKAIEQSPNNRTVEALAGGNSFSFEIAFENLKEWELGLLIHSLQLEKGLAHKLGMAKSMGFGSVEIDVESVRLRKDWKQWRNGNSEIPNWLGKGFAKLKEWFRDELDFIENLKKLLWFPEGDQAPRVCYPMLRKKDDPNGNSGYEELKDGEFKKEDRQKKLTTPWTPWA
As to the kind of experiment: structure; cryo-EM 2.45 A, PDB 7WAH; 20 mM Hepes pH 7.0, 150 mM NaCl, 2 mM MgCl2; target pairs with crRNA 1-23 except flipped 4 and 10. The note with it: tags: N-terminal MBP, C-terminal His6. Here is the method: A Cas7-11-crRNA-target RNA complex was reconstituted by mixing the purified MBP-Cas7-11 protein, the 39-nucleotide crRNA, and the 25-nucleotide target RNA, at a molar ratio of 1:1.2:1.5. The complex was purified by size-exclusion chromatography on a Superose6 Increase 10/300 column (GE Healthcare), equilibrated with the buffer containing 20 mM Hepes-NaOH, pH 7.0, 150 mM NaCl, 2 mM MgCl₂, and 1 mM DTT. The peak fraction containing Cas7-11-:crRNA-target RNA complex was concentrated to 1.5 A260 units using an Amicon Ultra-4 filter (10 kDa molecular-weight cutoff; Millipore). The samples (3 μl) were then applied to freshly glow-discharged Au 300 mesh R1.2/1.3 grids (Quantifoil) in a Vitrobot Mark IV (FEI) at 4° C. with a waiting time of 10 sec and a blotting time of 4 sec under 100% humidity conditions. The grids were plunge-frozen into liquid ethane cooled at liquid nitrogen temperature.
A model was built using Nautilus and Buccaneer in CCP-EM package and manually built using COOT against the density map sharpened using DeepEMhancer. […] The curve representing model vs. full map was calculated using phenix.mtriage, based on the final model and the full, filtered, and sharpened map. The cryo-EM density maps were calculated with UCSF ChimeraX, and molecular graphics figures were prepared with CueMol (http://www.cuemol.org).

B1: crRNA for structural analysis ; target RNA for structural analysis (ssRNA ; ssRNA)
RNA 1: GGUGAUGUCACGGAACCUUUGUUGUCUUCGACAUGGGUAAU
RNA 2: GGAUUACCCAUGUCGAAGACAACAAAG
In the case of B1, the binding result is “binds”.
